Assay results reported in the DeepSol protein solubility set.

assay: soluble on expression in E. coli; label from the status in PepcDB or PDB records

Row | Sequence | soluble on expression in E. coli
1 | MGSDKIHHHHHHMEIVLAKRAGFCFGVKRATQMAFEAAEKEGETFTLGPIIHSPQVVQRLEGMGVKVLSDLEGIGNGTVIIRSHGVTSAELEDAVRRQLEVVDATCPFVKKAQEHVKRLSHDGYTVVVVGDADHPEVQGIVSYAEGPVHVVGSGEEAARLPNMKKVGVVAQTTQSFETLKNVVKECLLKGGEIRVFNTICDATAVRQDEAKALAREVDCMIVIGGFNSANTKRLAEVCSELQPRTYHIETAQELDASWFQGVERVGVTAGASTPKWLIDEVIERIQEFDNKKKG | not soluble
2 | MGSDKIHHHHHHMEKFGLKALVPLLKLEDKELSSTYDHSMTLGADLSSMLYSLGIPRDSQDHRVLDTFQSPWAETSRSEVEPRFFTPESFTNIPGVLQSTVTPPCFNSIQNDQQRVALFQDETLFFLFYKHPGTVIQELTYLELRKRNWRYHKTLKAWLTKDPMMEPIVSADGLSERGSYVFFDPQRWEKCQRDFLLFYNAIM | not soluble
3 | MGSDKIHHHHHHMEKIIVNGRKNGQKIEIACSNLVMGAGDFLRADNMDFAGPVLDQYFEMGGNIFDTARHYRHSEKAIGAWMNMRGNRDSVIIQTKGGHPVREASDVPRVTPEAIHEDISVSLDTLQTDHVELFALHRDNPDVEVGSIMEAMHKEVEAGRVYAIGLSNWELSRIIEANEYAVNHGLTPLSFNSPNFSLAKVNRPRWENCVSANEEMIRWHEATNLPLFSWSSQAGGFFSGRFSEEDTSDTEMVEVYYSEANWERYSRAKQLANQKGCTPIQISLAYVLTQSFPTAAVIGPENTTELQSSVAAAGIKLTASEVDWLDLKA | not soluble
4 | MGSDKIHHHHHHMEKILDLLMSFVKEDEGKLDLASFPLRNTTAGAHLLLKTENVVASGIEVSRMFLEKMGLLSKFNVEDGEYLEGTGVIGEIEGNTYKLLVAERTLLNVLSVMFSVATTTRRFAEKLKHAKIAATRKILPGLGVLQKIAVVHGGGDPHRLDLSGCVMIKDNHLKMYGSAERAVQEVRKIIPFTTKIEVEVENLEDALRAVEAGADIVMLDNLSPEEVKDISRRIKDINPNVIVEVSGGITEENVSLYDFETVDVISSSRLTLQEVFVDLSLEIQR | soluble
5 | MGSDKIHHHHHHMEKQEIIEKLVELKDRLIEDVYQAYSRNTSDYGHERYNAWKKSVTKFLNQYIPNEVQRFNEKANPTYGVFLRRNGMSYHDFFWKTDGSAMNAYLESLILDIQNDDYDFTPINKEVQDVKTIPEAKSKKVLIVHGHDEAAKYRTEAFLRKHGFDPIILHLNASKGDTIIKKLERLAEGVGYGIVLYTPDDMGETKVKAVQHELQPRARQNVVFEHGYLMGLIGRPNVAAIVEGYVEKPSDIDGVVYIPSSNWEIDLLRELHEAGYPINPANL | not soluble
6 | MGSDKIHHHHHHMEKSYWEQAHLQLPLKYTWKISRNASTEKINVIVFLCIDGRTYPGEAAPNVRYGESVELIDLQFKHFQTVWKDSLLQDEHAYNDVLDGLKLCQSLRFALESAYVHARCDKDPAFFERYTGIKMHTSPLATSYTLPIMDPGQIQEFIQTHDLTRFDTLKIKTGKEESKELIKTASRYFDKMIRVDANEAWTDPDLLIKELEELKRIPLEFIEQPFESAQKDAYKYFKKYSKIPVIADESITFAPDLKEIKELFHGVNMKLMKAGGYREGANILLKSKELGLKTMVGCMVETTLGIRSGMWISGHSDYIDLDGSFVIDNEPFKLVSENLGRLVIKQVNFFIEKWQK | not soluble
7 | MGSDKIHHHHHHMEKYSAESIKVLKGLEPVRMRPGMYIGSTGKRGLHHLVYEVVDNSVDEALAGYCDWIRVTLHEDGSVEVEDNGRGIPVDIHPEEGRSALEVVFTVLHAGGKFSKDSYKISGGLHGVGVSVVNALSEWLEVRVHRDGKIYRQRYERGKPVTPVEVIGETDKHGTIVRFKPDPLIFSETEFDPDILEHRLREIAFLVPGLKIEFEDRINGEKKTFKFDGGIVEYVKYLNRGKKALHDVIHIKRTEKVKTKNGEDEVIVEIAFQYTDSYSEDIVSFANTIKTVDGGTHVTAFKSTLTRLMNEYGKKHNFLKKDDSFQGEDVREGLTAVISVYVKNPEFEGQTKSKLGNEEVKEAVTKAMREELKKIFDANPELVKTILSKIMSTKQAREAAKRAREMVRRKNVLQNTTLPGKLADCSSTHREKTELFIVEGDSAGGSAKQARDREFQAVLPIRGKILNVEKSSLDRLLKNEQISDIIVAVGTGIGDDFDESKLRYGRIIIMTDADIDGAHIRTLLLTLFYRYMRPLIEQGRVYIALPPLYRIKAGREEFYVYSDQELAEYKEKLQGKRIEIQRYKGLGEMNPEQLWETTMNPETRKIIRVTIEDAEEADRLFEILMGNDPSSRREFIERHALKVKELDI | not soluble
8 | MGSDKIHHHHHHMELQVFTNEQFGEVRTATINNQIYFNLNDCCQILELSNPRKTIERLNKDGVTTSDIIDSLGRTQQANFINESNFYKLVFQSRKPEAEKFADWVTSEVLPSIRKHGAYMTEQTLEQALTSPDFLIRLANELKEEKERSRQLEAEKSILSVENMVMKPKADYFDDLVDRNLLTSFRETAKQLKVKERRFIQFLLDKKYVYRDKKGKLMPFADKNNGLFEVKESVNEKTNWAGTQTLITPKGRETFRLLFI | not soluble
9 | MGSDKIHHHHHHMELSQNAPNELEYIREFLNTWRIPNDTREAIDLLQTEEDIKLFMKEYFHEEFPFHTIEELKSFREDIRMTIEGEGSLEKWLEKYPFHVYIKEDMKGITYEPIHEETVYTKVLSIVLIAVQENLWGRLKACPDCRWVFYDNSRNGSKRWCGMYAGEEGGRACGTIAKVKNYRAKRKGRSGYNV | not soluble
10 | MGSDKIHHHHHHMELVKFGKLKEQSYTMKESLRALKTNIQFCGDDIRTLLVTSSVPNEGKSTVALDLARSLTESGNRVLFIDTDMRKSVLAGRLRATAASGGEICGLSHYLSGQRRLEEVMYGTEIPGLFMIFAGPSVPNPTEILEKKYFQELLNFGKEHFNYIIIDCAPIGAAIDAAVVAKYCDGAIIVIGQGMASARMIQSVKKQLEASGVRILGAVLNKVNNKKNSHVSGYYGNYYGSYYGRSDKA | not soluble
11 | MGSDKIHHHHHHMENGEMIKVLLANPRGFCAGVDRAIEIVERALSVHGAPIYVRHEVVHNRFVVEDLEKKGAVFVENLDEVPAGSILIFSAHGVSHAVRREAEAGQFKVFDATCPLVTKVHIEVAKMRDQGREIIMIGHAGHPEVEGTMGQAEGDGPSMYLVETEEDVEKLQVQDPAHLAYVTQTTLSVDDANRVIQALKGRFPNILGPKKDDICYATQNRQDAVKTMVKQCDLVIVVGSPNSSNSNRLCEVARNAGVDAYMLDRAEQLQEAWLKGKMRIGITAGASAPEVLVQEVISRLRQIVSEQAEREVVVEELRGVVESVVFPLPRN | not soluble
12 | MGSDKIHHHHHHMENKVKTVAVFSGYYLPFLGGIERYTDKMTADLVKRGYRVVIVTTNHGDLPIIDEDKGRKIYRLPTKNIVKQRYPIINKNREYNTLMKYVSDENIDFVICNTRFQLTTLEGLSFAKNHHLPSIVLDHGSSHFSVNNRFLDFFGAIYEHLLTARVKHYRPDFYAVSKRSVEWLKHFNIEAKGVIYNSVSESLGSDFAGTAYLEKSADDIFITYAGRIIKEKGIELLLEAFSMSQYSENVYLQIAGDGPELAHLKEKYQSKQINFLGKLNFEQTMSLMAQTDIFVYPSMYPEGLPTSILEAGLLSSAIIATDRGGTVEVIDSPELGIIMEENTQSLHESLDLLVKDKALREKLQQNIAKRIKEHFTWEKTVEKLDYIIQKN | not soluble
13 | MGSDKIHHHHHHMENQPNTRSMIFTLYGDYIRHYGNVIWIGSLIRFLQEFGHNEQSVRAAVSRMSKQGWIQSEKKGNKSYYSLTDQGRKRMAEAAQRIYKLEAPSWDEKWRLLIYSIPEEKRSLRDELRKELVWSGFGLLANSCWITPNPLEEQVETLIEKYEISPYVHFFCADYRGMGEPKTLIEKCWDLDEINEKYLAFIQKYSQKYVIDKNKIEKGEMSDGACFVERTLLVHEYRKFLFIDPGLPQELLPEKWLGDSAAHLFADYYRTLAEPARRFFESVFAEGNSLVKKDKEYNFLDHPFMSESQS | not soluble
14 | MGSDKIHHHHHHMEPNDAVVGVDVSKEHLDVYLMPTGDQKRVTNDDAGCAELTTWLITNAPCRIVLEATGGLEMLAVSTLSAAGLPVVVVNPRQVRNFAKACGLLAKTDILDAKIIARFAQAIKPEIRPLKDETSQNLAALLARRRQLVEMLVAEKNRVISAAPTVRKGIMTHIAWLTQQIDDVDKDISTLIQSSESWKAKEEILTSVKGIGPVTAATILAALPELGTISRQQLGALVGVCPYNRDSGKFRGKRAISGGRATVRSVLYMATLCAARFNPVIKAFYQRLTSAGKLHKVAITACMRKLLTILNAMVKNNQKWDHSKFTPLLH | not soluble
